One may read the EC50 as the concentration giving half of the maximal effect.

Here are results for five molecules from US20240376200A1 (Seagen, published 2024).

Residue numbers refer to the chain shown, from its start. Names may count otherwise. Where two headings read alike, the source gives them in different places.

Data set [1] can be described thus: circular dichroism thermal denaturation at 222 nm. (Circular dichroism is widely used to follow secondary structure.)
In data set [2] the target is T1, Coil 10 heavy chain peptide for CD studies (VelB L24I).
T1 construct: also called Coil 10 (L24I); L24I VelB variant
T1 peptide: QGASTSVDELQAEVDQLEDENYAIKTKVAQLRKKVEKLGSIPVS
The data set can be described thus: circular dichroism thermal denaturation at 222 nm, 150 µM total peptide.

For data set [3], the target named is T2, Coil 148 heavy chain peptide for CD studies (VelB L24I/V28L).
T2 construct: also called Coil 148 (L24I/V28L)
T2 peptide: T1 peptide with V28L
The description is as above.

The target in data set [4] is T3, Vel heavy chain peptide for CD studies (VelB).
T3 construct: also called VelB (heavy chain) peptide; VelB1
T3 peptide: T1 peptide with I24L
Described as above.

In data set [5] the target is T4, recombinant human CD47 (human, UniProt Q08722 19-139, limits assumed).
T4 construct: also called recombinant CD47 antigen
The data set can be described thus: saturation binding ELISA.

For data set [6], the target named is T4, recombinant human CD47. The data set can be described thus: saturation binding ELISA. The source holds these as a separate data set. For orientation: ELISA stands for enzyme-linked immunosorbent assay.

B1: Coil 10 light chain peptide for CD studies (VelA L24A) (peptide)
peptide: QGASTTVAQLEEKVKTLRAENYEAKSEVQRLEEQVAQLGSIPVS
notes: also called Coil 10 (L24A); L24A VelA variant
With B1, in data set [1], the “Tm (melting temperature of the light chain homodimer)” value was “Tm=<20 °C”. The “Tm (melting temperature of the heterodimer)” value in data set [2] amounted to 28.6 ° C.
QGASTTVAQLEEKVKTLRAENYEAKSELQRLEEQVAQLGSIPVS (also called Coil 148 (L24A/V28L)) [Coil 148 light chain peptide for CD studies (VelA L24A/V28L)]: in data set [1], the “Tm (melting temperature of the light chain homodimer)” value is “Tm=<20 °C”. Further, in data set [3], the “Tm (melting temperature of the heterodimer)” value is 39.7 ° C.

B2: Vel light chain peptide for CD studies (VelA) (peptide)
peptide: B1 peptide with A24L
notes: also called VelA (light chain) peptide; VelA1
In the case of B2, in data set [1], the “Tm (melting temperature of the light chain homodimer)” value was “Tm=35.7 °C”. Moreover, the “Tm (melting temperature of the heterodimer)” value in data set [4] was determined as 57.6 ° C.

B3: hB6H12.3 (unmasked anti-CD47 antibody) (antibody, V domains shown)
VH: EVQLLESGGGLVQPGGSLRLSCAASGFTFSGYGMSWVRQAPGKRLEWVATITSGGTYTYYPDSVKGRFTISRDNSKNTLYLQMNSLRAEDTAIYFCARSLAGNAMDYWGQGTLVTVSS
VL: EIVMTQSPDFQSVTPKEKVTLTCRASQTISDYLHWYQQKPDQSPKLLIKFASQSISGVPSRFSGSGSGSDFTLTINSLEAEDAATYYCQNGHGFPRTFGQGTKLEIKR
In the case of B3, the concentration for a half-maximal effect (EC50) with recombinant human CD47 [5] and with recombinant human CD47 [6] was 2.55 nM each time.

B4: Vel-IPV-hB6H12.3 (wild-type Vel mask, Coil 1) (antibody, V domains shown)
VH: B3 VH
VL: EIVMTQSPDFQSVTPKEKVTLTCRASQTISDYLHWYQQKPDQSPKLLIKFASQSISGVPSRFSGSGSGSDFTLTINSLEAEDAATYYCQNGHGFPRTFGQGTKLEIK
For the molecule B4, in the data set with recombinant human CD47 [6], the EC50 came to 494 nM and the “EC50 fold change from hB6H12.3” value was 194 fold.
